# Results from publication PMC7970865 (Scientific Reports, 2021).
# T1: NPDP19 peptide (Plasmodium falciparum CSP junction, …)
# T1 construct: also called peptide NPDP-19
# T1 chain: KQPADGNPDPNANPNVDPN
# T2: peptide 21 (Plasmodium falciparum CSP junction, …)
# T2 construct: also called NP-DPNA-NPNV-DPNA-N
# T2 chain: NPDPNANPNVDPNAN
# Legend:
# [1] = target: P. falciparum sporozoite CSP (Plasmodium falciparum NF54, UniProt P19597); assay: cell-based or functional assay
# NPDP19 peptide = target: T1, NPDP19 peptide; assay: ELISA; details: both partners purified
# NANPx6 peptide = target: T3, NANPx6 peptide (Plasmodium falciparum CSP repeat, …); assay: ELISA; details: both partners purified
# T3 construct: also called NANP6; short repeat peptide
# peptide 21 = target: T2, peptide 21; assay: ELISA; details: both partners purified
# biotinylated NANPx6 = target: T4, biotinylated NANPx6 (Plasmodium falciparum CSP repeat, …); assay: BLI; Octet RED96; biotinylated FL-CSP or biotinylated NANPx6 on streptavidin biosensors, Fab in solution, kinetics buffer; global fit to 1:1 Langmuir model; details: both partners purified
# T4 construct: also called NANPx6 peptide; NANPx6 target antigen
# [2] = target: T5, P. falciparum CSP on transgenic P. berghei sporozoites (Plasmodium falciparum, gene strain not …, UniProt Q7K740); assay: ELISA; details: one partner purified
# T5 construct: also called transgenic P. berghei sporozoites carrying the P. falciparum CSP gene; transgenic P. berghei-falciparum sporozoites
Binder,other [1] [%],binding result (NPDP19 peptide),ng/ml mAb needed for OD = 1 (NANPx6 peptide) [ng/mL],binding result (peptide 21),Kd (biotinylated NANPx6) [nM],koff (biotinylated NANPx6) [s⁻¹],kon (biotinylated NANPx6) [M⁻¹ s⁻¹],binding result [2]
"mAb CIS43 (antibody, V domains shown) VH: QVQLVQSGAEVKKPGASVKVSCKASGYTFTSYAIHWVRQAPGQRLEWMGWIKAGNGNTRYSQKFQDRVTITRDTSTTTAYMELSSLRSEDTAVYYCALLTVLTPDDAFDIWGQGTMVTVSS VL: not shown",~100,binds,< 10,binds,,,,
"Fab CIS43 (Fab, V domains shown) VH: QVQLVQSGAEVKKPGASVKVSCKASGYTFTSYAIHWVRQAPGQRLEWMGWIKAGNGNTRYSQKFQDRVTITRDTSTTTAYMELSSLRSEDTAVYYCALLTVLTPDDAFDIWGQGTMVTVSS VL: not shown",,,,,41,0.0017,40000,
"mAb 311 (antibody, V domains shown) VH: QVQLVESGGGVVPPGRSLRLSCATSGFTFSNYGMHWVRQAPGKGLEWVAIIWYDGSRNFYAASVEGRFTISRDNSKNTLYLQMNSLRVEDTAVYYCARAAYYDTSGYGDYWGQGTLVTVSS VL: QSVLTQPPSVSGAPGQTVTISCTGGSSNIGAGYDVHWYQQLPGTAPKLLIYGNINRPSGVPDRFSGSKSGTSASLAITGLQAEDEADYYCQSYDRRLSGSWVFGGGTKLTVL",~100,binds,< 10,,,,,binds
"Fab 311 (Fab, V domains shown) VH: QVQLVESGGGVVPPGRSLRLSCATSGFTFSNYGMHWVRQAPGKGLEWVAIIWYDGSRNFYAASVEGRFTISRDNSKNTLYLQMNSLRVEDTAVYYCARAAYYDTSGYGDYWGQGTLVTVSS VL: QSVLTQPPSVSGAPGQTVTISCTGGSSNIGAGYDVHWYQQLPGTAPKLLIYGNINRPSGVPDRFSGSKSGTSASLAITGLQAEDEADYYCQSYDRRLSGSWVFGGGTKLTVL",,,,,7,0.0002,27000,
"mAb 317 (antibody, V domains shown) VH: QMQLVESGGGVVQPGRSLRLSCTASGFTFSTYAMHWVRQSPGQGLQWVAVISYHSTNKYYEDSVRGRFTISRDNSKNTLYLQMNSLRAEDTAVYYCARDGYSSSFFDFWGQGTLVTVSS VL: DIQMTQSPSTLSASVGDRVAITCRASQSISRWLAWYQQQPGKAPKLLMSGASVLESGVPSRFSGSGSGTEFTLTISSLQPDDFATYYCQHYNSYFVTFGQGTKVEIK",,,< 10,,,,,
"Fab 317 (Fab, V domains shown) VH: QMQLVESGGGVVQPGRSLRLSCTASGFTFSTYAMHWVRQSPGQGLQWVAVISYHSTNKYYEDSVRGRFTISRDNSKNTLYLQMNSLRAEDTAVYYCARDGYSSSFFDFWGQGTLVTVSS VL: DIQMTQSPSTLSASVGDRVAITCRASQSISRWLAWYQQQPGKAPKLLMSGASVLESGVPSRFSGSGSGTEFTLTISSLQPDDFATYYCQHYNSYFVTFGQGTKVEIK",,,,,0.003,,,
"mAb 663 (antibody, V domains shown) VH: EVQLLESGGGLEQPGGSLRLSCVVSGFTFSNYAFNWVRQAPGKGLEWVAIIYRSGSRMYHADSVKGRFTISRDDSKNTLFLQMNNLRAEDTAVYYCTTLLIYESDVGVDFWGQGTLVTVSS VL: DIVMTQSPLSLPVSPGEPASISCRSTQSLIFGEHNYLDWYLQKPGQSPQLLIYLASNRASGVPDRFSGSGSGTYFTLKISRVEAEDFGVYYCVQTVQVPYTFGQGTKLEIK",~100,binds,< 10,,,,,binds
"Fab 663 (Fab, V domains shown) VH: EVQLLESGGGLEQPGGSLRLSCVVSGFTFSNYAFNWVRQAPGKGLEWVAIIYRSGSRMYHADSVKGRFTISRDDSKNTLFLQMNNLRAEDTAVYYCTTLLIYESDVGVDFWGQGTLVTVSS VL: DIVMTQSPLSLPVSPGEPASISCRSTQSLIFGEHNYLDWYLQKPGQSPQLLIYLASNRASGVPDRFSGSGSGTYFTLKISRVEAEDFGVYYCVQTVQVPYTFGQGTKLEIK",,,,,138,0.056,400000,
"mAb MGG4 (antibody, V domains shown) VH: QVQLVESGGGVVQPGRSLRLSCAASGFRFSDYGMHWVRQAPGKGLEWVALIWYDGSNESYLDSVKGRFTISRDNSKNTLYLQMNNLRTEDTAVYYCAKLLVGITTDVFDVWGQGTVVTVSS VL: DIVMTQSPDSLAVSLGERATINCRSSQSVLSSSNNKNYLAWYQHKPRQPPKLLIYWASTRESGVPDRFSGSGSGTDFTLTISSLQAEDVAVYYCQQYYTASPFFGGGTKVEIK",~100,binds,< 10,,,,,binds
"Fab MGG4 (Fab, V domains shown, also called MGG4 Fab) VH: QVQLVESGGGVVQPGRSLRLSCAASGFRFSDYGMHWVRQAPGKGLEWVALIWYDGSNESYLDSVKGRFTISRDNSKNTLYLQMNNLRTEDTAVYYCAKLLVGITTDVFDVWGQGTVVTVSS VL: DIVMTQSPDSLAVSLGERATINCRSSQSVLSSSNNKNYLAWYQHKPRQPPKLLIYWASTRESGVPDRFSGSGSGTDFTLTISSLQAEDVAVYYCQQYYTASPFFGGGTKVEIK",,,,,51,0.0045,90000,
